The record followed here is publication PMC8764033, “Single-molecule analysis of specificity and multivalency in binding of short linear substrate motifs to the APC/C” (Nature Communications, 2022).

Assay [1] deals with Cdh1-activated yeast APC/C with the mutant Apc10 subunit Apc10-4A (S. cerevisiae | S. cerevisiae (endogenous in yeast)) (UniProt P53197). Kind of assay: single-molecule off-rate (SMOR) assay, TIRF microscopy; target held on PEG/PEG-biotin glass by NeutrAvidin and biotinylated anti-Strep-Tag II antibody (tag on the activator); dye-labeled ligand (peptide no greater than 1 nM) in buffer C + BSA (20 mM HEPES pH 7.5, 150 mM KCl, 10% glycerol, 0.05% Tween-20, 1 mM DTT) with oxygen scavengers; mean dwell time from an exponential distribution; dwell times below 100 ms noted as single-frame (SF).
Chain of Cdh1-activated yeast APC/C with the mutant Apc10 subunit Apc10-4A (S. cerevisiae | S. cerevisiae (endogenous in yeast)) (P53197 whole entry, looked up, change not shown, tested part not stated): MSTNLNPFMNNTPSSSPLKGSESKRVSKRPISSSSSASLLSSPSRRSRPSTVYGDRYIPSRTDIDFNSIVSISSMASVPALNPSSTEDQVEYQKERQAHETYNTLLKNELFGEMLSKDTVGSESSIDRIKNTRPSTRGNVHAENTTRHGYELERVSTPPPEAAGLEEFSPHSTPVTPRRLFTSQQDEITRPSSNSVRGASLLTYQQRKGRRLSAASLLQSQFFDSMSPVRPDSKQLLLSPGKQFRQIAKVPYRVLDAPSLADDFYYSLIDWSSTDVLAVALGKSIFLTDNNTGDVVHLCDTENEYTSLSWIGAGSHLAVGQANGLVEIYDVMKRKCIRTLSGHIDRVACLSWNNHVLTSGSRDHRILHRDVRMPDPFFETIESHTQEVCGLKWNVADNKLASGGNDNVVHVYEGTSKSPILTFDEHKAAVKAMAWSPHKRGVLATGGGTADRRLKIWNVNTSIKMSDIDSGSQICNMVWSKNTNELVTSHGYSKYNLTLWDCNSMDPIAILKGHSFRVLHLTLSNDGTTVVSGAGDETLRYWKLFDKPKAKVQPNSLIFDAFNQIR

Assay [2] has as its target Cdc20-activated yeast APC/C with the mutant Apc10 subunit Apc10-4A (S. cerevisiae | S. cerevisiae (endogenous in yeast)) (UniProt P26309). Described as above.
For assay [3], the target named is Cdh1-activated yeast APC/C (S. cerevisiae | S. cerevisiae (endogenous in yeast)) (UniProt P53197). The description is as above.
Assay [4] deals with Cdc20-activated yeast APC/C (S. cerevisiae | S. cerevisiae (endogenous in yeast)) (UniProt P26309). The assay is described as above.
Assay [5] addresses Cdh1-activated yeast APC/C (S. cerevisiae | S. cerevisiae (endogenous in yeast)) (UniProt P53197). Kind of assay: fluorescence polarisation + other: single-molecule off-rate (SMOR) assay; inferred constants: kon from the KD of anisotropy and the koff of SMOR; KD for APC/C^Cdh1 from the dwell time with the kon of Cdh1 alone assumed. For orientation: Polarisation of emitted light reports the rotation of a fluorescent probe.

Chain of Hsl1 fragment (amino acids 667–872) with C-terminal HaloTag, wild-type degrons (P34244 667-872): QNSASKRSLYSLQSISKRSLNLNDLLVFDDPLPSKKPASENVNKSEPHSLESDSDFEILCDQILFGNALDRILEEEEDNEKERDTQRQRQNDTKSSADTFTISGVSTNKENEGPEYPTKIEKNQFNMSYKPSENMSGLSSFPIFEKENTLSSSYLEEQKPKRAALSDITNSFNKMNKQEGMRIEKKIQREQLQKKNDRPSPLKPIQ
Chain of Cdc20-activated yeast APC/C with the mutant Apc10 subunit Apc10-4A (S. cerevisiae | S. cerevisiae (endogenous in yeast)) (P26309 whole entry, looked up, change not shown, tested part not stated): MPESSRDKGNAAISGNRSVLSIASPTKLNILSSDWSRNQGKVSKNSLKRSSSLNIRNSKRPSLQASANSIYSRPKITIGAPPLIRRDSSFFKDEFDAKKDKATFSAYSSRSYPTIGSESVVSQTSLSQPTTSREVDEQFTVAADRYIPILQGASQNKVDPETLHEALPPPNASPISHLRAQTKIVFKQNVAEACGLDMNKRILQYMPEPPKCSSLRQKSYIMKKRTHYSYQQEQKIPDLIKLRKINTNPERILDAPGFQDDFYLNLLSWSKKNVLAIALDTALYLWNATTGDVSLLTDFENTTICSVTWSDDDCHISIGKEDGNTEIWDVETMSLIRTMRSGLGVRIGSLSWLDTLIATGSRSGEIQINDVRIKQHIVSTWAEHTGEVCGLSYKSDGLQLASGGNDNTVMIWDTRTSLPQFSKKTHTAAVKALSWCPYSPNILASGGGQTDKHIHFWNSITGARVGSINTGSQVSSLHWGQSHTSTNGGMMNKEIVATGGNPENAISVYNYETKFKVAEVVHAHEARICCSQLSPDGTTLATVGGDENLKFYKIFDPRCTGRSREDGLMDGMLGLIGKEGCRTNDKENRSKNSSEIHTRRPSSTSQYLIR

Take Cy5-labeled Hsl1 D box peptide: the mean dwell time stood at 0.375 s in assay [1] and 0.152 s in assay [2].

Usually Kd stands for the concentration at which binding is half-saturated. Consider “Hsl1 fragment (amino acids 667–872) with C-terminal HaloTag, wild-type degrons (from UniProt P34244 667-872) (domain or fragment)”, for which the mean dwell time in assay [1] was found to be 75.9 s; in assay [3] it was 321 s; in assay [4], 0.518 s; in assay [2] it was 0.449 s. Further, the Kd in assay [5] amounted to 4 nM.
